Data on nine molecules can be found in patent US20120277143A1 (Janssen / Centocor, published 2012).

One may read the Kd as a measure of binding affinity in units of concentration. The term koff denotes a measure of how fast the partners let go of each other. Higher therefore signals fast dissociation. By kon is commonly meant a measure of how fast the partners come together. Read a low kon as slow association. Usually IC50 stands for the midpoint of a concentration-inhibition curve. A higher IC50 goes with weaker potency.

Test [1] addresses T1, human IL4 (human, UniProt P05112 25-153, biotinylated in the SPR and competition assays (sites not given)).
T1 construct: Peprotech #200-04, mature protein produced in E. coli; also called hIL4; Interleukin 4
T1 sequence: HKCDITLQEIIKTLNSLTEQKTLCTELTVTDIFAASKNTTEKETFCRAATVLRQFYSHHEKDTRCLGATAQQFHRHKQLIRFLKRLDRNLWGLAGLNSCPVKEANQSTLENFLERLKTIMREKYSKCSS
Kind of test: binding to recombinant IL4; kinetic method not restated.

For test [2], the target named is T1, human IL4. Description: cell-based or functional assay.
The target in test [3] is T2, human IL13 (human, UniProt P35225 35-146, biotinylated in the SPR assays (sites not given)). Description: cell-based or functional assay.
In test [4] the target is T2, human IL13. Kind of test: SPR ProteOn, biotin-hIL13 on streptavidin, 1:1 global fit. As for the experimental part:
Complete kinetic data describing binding of various engineered binding protein molecules to human IL13 was measured using a method similar to that described above for the single point affinity analysis. Briefly, streptavidin (Pierce) was immobilized to similar levels (˜1800 RUs) on all six channels of a ProteOn GLC chip via amine coupling (pH 5.0). Biotinylated hIL13 was captured at different surface densities (600˜100 RUs) on different channels. Protein binding was tested starting at 40 nM diluted in a 3-fold concentration series over the different density IL13 surfaces; a buffer sample was injected to monitor the baseline stability. Dissociation phases for all concentrations of each binding protein sample were monitored for one hour at a flow rate of 100 μl/min. Response data for all concentration series from the different density surfaces were globally fit to a 1:1 simple langmuir binding model to extract values of the kinetic (kₒₙ, koff) and affinity (KD) constants provided in Table 16.

Test [5] has as its target cyno IL13 (cynomolgus monkey, UniProt Q0PW92 21-132). Description: cell-based or functional assay.
Test [6] has as its target T2, human IL13. Kind of test: cell-based or functional assay. This is another data set of the same source.
Test [7] deals with T2, human IL13. Kind of test: SPR BIAcore, biotin-IL13 on SA chip, global fit. The method, then: Recombinant human IL13 (Peprotech) was minimally biotinylated on ice using sulfo-NHS-LCLC-Biotin and desalted into the experimental running buffer containing 10 mM HEPES, 150 mM NaCl, pH 7.4, 0.01% Tween-20, and 0.1 mg/mL BSA. Biotinylated IL13 was captured at three different surface densities (from about 150, 50, and 25 RU) onto three different BIAcore SA (streptavidin) sensor chips. Each binding protein sample was tested at 40 nM as the highest concentration in a 3-fold dilution series over the three different density IL13 surfaces. The dissociation phase for the highest concentration of the binding protein sample was monitored for one hour. The response data from each of the different density surfaces was globally fitted in order to extract estimates of the kinetic and affinity constants which are provided in Table 7 below.
(In SPR one partner is held on a chip, and binding of the other changes the refractive index at the surface.)

Test [8] has as its target T3, human IL13 R130Q (human, UniProt P35225 35-146, biotinylated (sites not given)).
T3 construct: Peprotech; also called IL13R13Q; R111Q
Kind of test: Luminex competition, 80 pM biotin-IL13 R130Q binding to IL13Ra2-Fc beads. As for the experimental part: Binding protein inhibition of IL13 binding to Rα2 was assessed using IL13Rα2-Fc (R&D Systems) conjugated to carboxylated Luminex microspheres according to the manufacturer's protocol. For biotinylation of IL13, recombinant human IL13 R130Q (Peprotech) was biotinylated at a 4:1 ratio using EZ-Link NHS-LC-Biotin (Pierce, #21336) for 2 hours at RT. The protein was dialyzed in PBS overnight to remove excess biotinylation reagent. For neutralization experiments, 5000 IL13 Rα2-Fc conjugated beads in 50 μl were added to each well of a 96-well filter plate (Millipore). 50 μl of biotinylated human IL13 at 1 ng/ml (80 pM) was mixed with an appropriate dilution of binding protein in Luminex Assay Buffer (PBS, 1% BSA, pH 7.4). The plate was incubated for 1 hour at RT in the dark on a plate shaker, set to shake vigorously to avoid bead aggregation. The plate was washed 3 times with 150 μl of wash buffer (PBS, 1% BSA, pH 7.4, 0.05% Tween-20) using a vacuum manifold followed by the addition of 50 μl of Streptavidin PE at 25 μg/ml and incubated at RT for 20 minutes. The plates were washed again and 100 μl of sheath fluid was added and the plate was placed on the shaker for 1 minute. Plates were read using a Luminex® 100 system; data were plotted as a function of binding protein concentration. IC₅₀ values were determined by fitting the data to the equation for sigmoidal dose response using PRIZM software (GraphPAD PRIZM).

Test [9] has as its target T1, human IL4. Kind of test: SPR ProteOn, biotin-IL4 on neutravidin chip, 1:1 fit. The method, then:
Purified binders selected as “hits” were ranked by their affinity on a ProteOn XPR-36 instrument (Bio-Rad). ProteOn is an optical biosensor instrument that measures protein-protein interactions in real time, based on Surface Plasmon Resonance technology similar to Biacore (GE). A rapid experimental protocol was performed as follows: On a GLC sensor chip (Bio-Rad), Neutravidin (Thermo Scientific) was covalently immobilized to a density of >5000 RU using amine coupling chemistry as described by the manufacturer. On one flow cell, biotinylated IL4 (Peprotech) was immobilized to a level of 250 RU, while another flow cell was used as reference, with neutravidin immobilized only. […] The retrieved values were used to rank the AR proteins by their affinity.

In test [10] the target is T1, human IL4. Description: cell-based or functional assay. The source holds these as a separate data set.
Test [11] concerns the target T1, human IL4. Description: Luminex competition, 67 pM biotin-IL4 binding to IL4RA-Fc beads. The method, then: For biotinylation of IL4, recombinant human IL4 (Peprotech) was biotinylated at a 4:1 ratio using EZ-Link NHS-LC-Biotin (Pierce, #21336) for 2 hours at RT. The protein was dialyzed in PBS overnight to remove excess biotinylation reagent. Competition binding for cynomologous IL4 (SEQ ID NO: 5) was performed using the isolated protein biotinylated in the same manner.
AR protein inhibition of IL4 binding to IL4 RA was assessed using IL4 RA-Fc (R&D Systems), comprising the Gly24-His232 which represents the ECD (SEQ ID NO: 5) fused to a human IgGl-Fc and therefor a disulfide linked homodimer. The protein was conjugated to carboxylated Luminex microspheres according to the manufacturer's protocol. For neutralization experiments, 5000 IL4RA-Fc conjugated beads in 50 μl were added to each well of a 96-well filter plate (Millipore). Biotinylated human IL4 was mixed with an appropriate dilution of AR protein in Luminex Assay Buffer (PBS, 1% BSA, pH 7.4) to give a final concentration of 67 pM IL4. The plate was incubated for 1 hour at RT in the dark on a plate shaker, set to shake vigorously to avoid bead aggregation. The plate was washed twice with 150 μl of wash buffer (PBS, 0.1% BSA, pH 7.4, 0.05% Tween-20) using a vacuum manifold followed by the addition of 50 μl of Streptavidin PE at 25 μg/ml and incubated at RT for 20 minutes. The plates were washed again and 150 μl of sheath fluid was added and the plate was placed on the shaker for 5 minute. Plates were read using a Luminex® 100 system; data were plotted as a function of AR protein concentration. IC₅₀ values were determined by fitting the data to the equation for sigmoidal dose response using PRISM software (GraphPAD PRISM) (Table 6).

Test [12] deals with T1, human IL4. Description: cell-based or functional assay. The source holds these as a separate data set.

Substitutions are numbered along the chain they refer to.

T2 sequence (P35225 other isoform, or with tags, fused parts or gaps limits assumed): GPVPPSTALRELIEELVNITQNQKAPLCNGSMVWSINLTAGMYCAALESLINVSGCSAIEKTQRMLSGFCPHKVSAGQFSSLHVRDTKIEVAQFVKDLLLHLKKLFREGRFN
T3 sequence (P35225 35-146 limits assumed, stated change not applied): as the sequence (P35225 other isoform, or with tags, fused parts or gaps limits assumed) above, with R110Q counted along it
cyno IL13, sequence (Q0PW92 entry or part of it): as the sequence (P35225 other isoform, or with tags, fused parts or gaps limits assumed) above, with G1S, R10K, M42V, S67N, H83R, L100V, R110Q counted along it

B1: C06_53G6v1 (designed binder)
chain: DLGKKLLEAARAGQDDEVRILMANGADVNATDDWGDTLLHLAATDGHLEIVEVLLKAGADVNANDAIGDTPLHLAALYGHLEIVEVLLKYGADVNATDLHGFTPLHLAAFWGHLEIVEVLLKHGADVNAQDKFGKTAFDISIDNGNEDLAEILQKLN
Consider B1, for which the Kd in [1] was found to be 1.8 pM. For the same molecule, the “IC50 STAT6” value in test [2] worked out at 1.4 pM.

B2: 7G11 (designed binder)
chain: DLGKKLLEAARAGQDDEVRILMANGADVNATDEFDSTPLHLAARHGHLEIVEVLLKYGADVNAADFIGDTPLHLAAYRGHLEIVEVLLKCGVDVNADDHGDTPLHLAASMGHLEIVEVLLKNGADVNAQDKFGKTAFDISIDNGNEDLAEILQKLN
notes: ankyrin repeat protein
On to B2, for which, in test [3], the “HEK STAT6 IC50” value was determined as 2.5 pM. Also, the Kd in test [4] is 16.8 pM. Besides, the “Cyno IL13 STAT6 IC50” value in [5] was 98 pM. Also, in test [6], the “STAT6 Phospho IC50” value was 2.5 pM and the “TARC expression IC50” value was found to be 19.6 pM. In test [7], this molecule showed a Kd of 32.8 pM, an off-rate (koff) of 5.3e-05 s⁻¹ and an association rate constant (kon) of 1.62e+06 M⁻¹ s⁻¹. The molecule also registered an IC50 in test [8] of 3.4 pM.

B3: 9F8r3 (designed binder)
chain: GLDKKLLEAARAGQDDEVRILMANGADVNASDIFGSTPLHLAARHGHLEIVEVLLKYGADVNAFDFIGDTPLHLAAYRGHLEIVEVLLKYGVDVNADDHGDTPLHLAAQIGHLEIVEVLLKHGADVNAQDKFGKTAFDISIDNGNEDLAEILQKAA
notes: optimized 9F8; expressed without HIS tag
For the molecule B3, the “HEK STAT6 IC50” value in test [3] was 202 pM. In [4], this molecule returned a Kd of 65.6 pM.

B4: 7G11r7 (designed binder)
chain: B3 chain with S31T, I33E, G35D, F64A, Q109S, I110T
notes: optimized 7G11; expressed without HIS tag
As to B4, in test [3], the “HEK STAT6 IC50” value was determined as 85 pM. This molecule showed a Kd in [4] of 24.2 pM.

B5: IL13 binding protein 6G9 (designed binder)
chain: DLGKKLLEAARAGQDDEVRILMANGADVNARDSYGSTPLHLAAREGHLEIVEVLLKYGADVNAKDMIGDTPLHLAAYRGHLEIVEVLLKNGADVNASDITGETPLHLAAQIGHLEIVEVLLKYGADVNAQDKFGKTAFDISIDNGNEDLAEILQKLN
For B5, the “HEK STAT6 IC50” value in test [3] amounted to 17.4 pM. For the same molecule, the Kd in [4] turned out to be 24.9 pM. In addition, in [5], the “Cyno IL13 STAT6 IC50” value is 96.4 pM. Besides, in [6], the “STAT6 Phospho IC50” value is 17.4 pM and the “TARC expression IC50” value came out at 64 pM. Further, in [7], binding was characterised by a dissociation constant (Kd) of 57.7 pM, the koff came out at 5.74e-05 s⁻¹ and the kon worked out at 995000 M⁻¹ s⁻¹. This molecule also came in with an IC50 in test [8] of 31 pM.

B6: 6G9r13 (designed binder)
chain: B5 chain with D1A, G3D, K64A, M66F, N90Y, Y123H, L156A, N157A
notes: optimized 6G9; expressed without HIS tag
B6: the “HEK STAT6 IC50” value in test [3] amounted to 5.6 pM. For the same molecule, in test [4], the affinity, expressed as Kd, was 25.1 pM.

B7: C06_28E5 (designed binder)
chain: DLGKKLLEAARAGQDDEVRILMANGADVNAADDSGITPLHLAAEDGHLEIVEVLLKYGADVNAQDNLGDTPLHLAAWTGHLEIVEVLLKNGADVNAYDISGITPLHLAAFYGHLEIVEVLLKHGADVNAQDKFGKTAFDISIDNGNEDLAEILQKLN
notes: ankyrin repeat protein; His-tagged, IMAC-purified; also called benchmark AR protein
B7: in [9], the Kd stood at 50 pM, the koff came to 4.61e-05 s⁻¹ and the kon worked out at 922000 M⁻¹ s⁻¹. Also, in test [10], the “inhibition of STAT6 (HEK-STAT6 cells), IC50” value worked out at 3 pM. In test [11], this molecule showed a 50% inhibitory concentration (IC50) of 10.2 pM. Besides, in [12], the “A549 TARC Inhibition IC50” value is 174 pM, the “HEK Stat6 Inhibition IC50” value was determined as 1.4 pM and the “Type 1 Complex inhibition IC50” value came to 1.5 pM.

B8: C06_28E5v1 (designed binder)
chain: B7 chain with Y57A, N90A
For the molecule B8, the Kd in test [1] was 8.38 pM. Moreover, the “IC50 STAT6” value in [2] stood at 3.1 pM.

B9: C06_44C12v2 (designed binder)
chain: DLGKKLLEAASAGQDDEVHILMANGADVNALDDSGYTPLHLAAEDGHLEIVEVLLKHGADVNAADRLGDTPLHLAAFVGHLEIVEVLLKAGADVNAVDLAGVTPLHVAAFYGHLEIVEVLLKAGADVNAQDKFGKTAFDISIDNGNEDLAEILQKLN
With B9, the Kd in test [1] was 1.6 pM. In addition, the “IC50 STAT6” value in test [2] stood at 6.9 pM.
